Entries after “also recorded” stand apart in the source; their conditions may differ.
Assays:
[1] = Proteolytic resistance of Av3b mutants during production-strain fermentation (rpHPLC); type: physicochemical
Description: The mutants in the table below were evaluated for stability in fermentation beer. Fermentation conditions and HPLC analysis were performed as described above. The mutant production strains were generated using YCT306 K. lactis strain. The production of mutants was performed as described in Example 2; fermentation conditions were performed using the same fermentation process described above regarding the Av3b production strain, with pH control at pH 6.5. […] To identify the mutant with proteolytic resistance, the mutant strains were grown under the same fermentation conditions as Av3b, and samples were taken throughout the fermentation process. The samples taken at 140 hour of fermentation process were analyzed in rpHPLC.

[2] = DASbox small-scale fermentation, degradation by HPLC and LC/MS; type: physicochemical; details: DASbox fed batch fermentation runs
Description: DASbox® is a parallel bioreactor system (Eppendorf, 175 Freshwater Blvd, Enfield, CT 06082, USA). The DASbox system used here contains 8 fermentation vessels with 250 mL volume capacity, allowing 8 small scale fermentation runs simultaneously. The DASbox fermentation runs were performed according to the manufacturer's instructions, and using the fermentation conditions described herein.
The screening of the Av3b mutants was conducted using a fed batch process in aerobic bioreactor. Reactors were initially filled to ˜45% capacity with a rich culture media containing 5-20 g/L of a carbon source such as glucose, sorbitol, or lactose, 5-20 g/L phosphoric acid, 0.1-1.5 g/L Calcium sulfate, 5-15 g/L Potassium sulfate, 0.5-10 g/L Magnesium sulfate heptahydrate, 1-5 g/L potassium hydroxide, and 10-60 g/L of corn steep liquor. The temperature of the reactor was maintained between 25-35° C. for the duration of the fermentation. The pH was held constant between 4-5.5 with the addition of 15% ammonium hydroxide. Dissolved oxygen was held constant by sparging air between 0.5-1.5 volume/volume/min and by increasing agitation to maintain a set point of 10-30%.
Inoculation of the reactor was from an overnight seed culture containing 5-40 g/L of a carbon source such as glucose, sorbitol, or lactose, and 5-40 g/L of corn steep liquor. Inoculation percentage ranged from 5-20% of initial fill volume. Once inoculated, the reactor was fed with a 70% solution of the selected carbon source until the reactor was filled and/or desired supernatant peptide concentration was achieved, approximately 96-140 hours and 0.8-1.2 g/L, respectively.

Helicoverpa zea = experiment: Lepidoptera injection assay, corn earworm (CEW); type: in vivo
Description: (§1) An injection assay was performed on Helicoverpa zea (corn earworm or “CEW”) and Spodoptera frugiperda (fall armyworm or “FAW”). Injections comprised a given Av3b mutant peptide combined with water to arrive at the planned dose. The Av3b mutants included Av3bM24; Av3bM165; Av3bM103; and Av3bM170. Av3b was used as a control.
(§2) Insects were reared on an artificial diet prepared from General Purpose Lepidoptera diet (Frontier Scientific, Newark, DE 19713, product No. F9772) according to the manufacturer's instructions. To perform the insect injection bioassay, 5 mL of hot diet was dispensed into the well of a rearing tray (Bio-Service Inc., Bio-RT-32), with 8 wells per injection treatment. The hot diet was then allowed to cool and solidify. Next, third instar larva were incubated on ice in order to immobilize them. Injections were prepared on a hand-microapplicator with injection solution (>100 μL) in 1-cc all-glass syringe having a 30 gauge straight needle. Air bubbles were removed from the syringe, and the syringe was set it up on the microapplicator. Injection volume was adjusted in the microapplicator at 2 μL.
(§3) To inject the larva, the insects were picked up and positioned close to the injection needle. The needle was allowed to penetrate the cuticle of the third pro-leg of the larva. The injection knob of the microapplicator was then rotated to inject a 2 μL solution into hemolymph from the third pro-leg. After injection the larva maintained on the needle for a few seconds to make sure the injected solution was absorbed. Then, the larva were gently removed from the needle and placed into the wells of prepared tray, along with 5 mL of solidified diet per well. Finally, the tray was sealed with vent covers.
(§4) Injected larva were incubated at 28° C. in an insect incubator, and scored at 24-hours post-injection based on their condition. Insect conditions were categorized as follows: alive (walking, eating, normal behavior); affected (showing toxic symptoms, such as tremors, writhing, unbalanced gait, or a combination thereof), knockdown (paralyzed albeit able to move with gentle poke); and dead (unmoving, discoloration, or a combination thereof).

Spodoptera frugiperda = experiment: Lepidoptera injection assay, fall armyworm (FAW); type: in vivo; details: third instar larva, 2 μL injection, scored at 24-hours post-injection
Description: as §1, §2, §3, §4

[3] = Circular dichroism assay, melting temperature; type: physicochemical; details: 10 mM Na3PO4 solution, pH 5.9; 20° C. to 98° C.
Description: A JASCO J-1500 CD spectrometer (JASCO, 28600 Mary's Court, Easton, MD 21601 USA) was used to measure the CD spectrum and the secondary structure information of the Av3bM24, Av3bM165, Av3bM103, and Av3bM170 peptides (with Av3b as a comparator). The peptides were prepared in 10 mM Na3PO4 solution, pH 5.9, and loaded into the cuvette for CD spectrum measurement. Measurements were processed with a light wavelength scan ranging from 180 nm to 250 nm, with a 1 nm interval; the temperature graduate changed from 20° C. to 98° C., with 2° C. interval.

[4] = Thermo-stability at 54° C. in pH 4.0 solution; type: physicochemical
Description: A thermo-stability study was performed for Av3b, Av3bM24, Av3bM165, Av3bM103, and Av3bM170 in a pH 4.0 solution at 54° C. for 0, 3, 7, 10, 12, and 14 days, with a caffeine internal control to cancel variation from evaporation. Samples of 1 mL were prepared in 1.5 mL microtube with sodium acetate buffer (NaOAc) at pH 4.0, containing 0.1 μg/μL of peptide, and 0.025 μg/μL of caffeine. The samples were incubated at 54° C. in a dry mixer. At 0, 3, 7, 10, 12, and 14 days, 20 μL of each sample was analyzed via analytic rpHPLC system to evaluate peptide loss. Each sample contained a fixed amount caffeine, which was used to compensate the peptide HPLC UV absorbance peak change due to volume change by evaporation. FIG. 68.

[5] = Stability of Av3b mutants in insect gut extract; type: in vitro ADME, Helicoverpa zea; details: H. zea gut extract, room temperature
Description: To test the stability of the Av3b mutants in the gut enzymes of a lepidopteran pest, the gut extract were prepared from Helicoverpa zea (Corn Earworm or “CEW”). Corn Earworm insects were obtained commercially from Benzon Research (Carlisle, PA) as eggs. Hatched larvae were raised on artificial diet until ⅘^th instar (20 mm long) before guts were isolated. Before gut extraction, larvae were anesthetized using CO2. The larva was then pinned on the dissection plate at both the head and the tail. Using dissection scissors, the cuticle was nicked. The dissection scissors were then inserted into the nick and the […] along the insect. The cuticle was then carefully pulled back and pinned open to reveal the digestive track. Using DI water, the insect was thoroughly rinsed to remove hemolymph.
After the insect guts were extracted from the larva, they were spun at 15000 rpm for 5 minutes. The resulting supernatant is the “insect gut extract” that was used to determine peptide stability. Av3b mutant peptide was mixed with the gut extract to […] of 2 μg/μL, and incubated at room temperature. At time points between 0-100 hours, 6 μL of a given sample was mixed with 93 μL dH2O followed by the addition of 1 μL of a 2% trifluoracetic acid solution to stop the reaction. The sample was then analyzed by rpHPLC to determine the peptide loss during the gut extract treatment.

KSCCPCYWGGCPWGQNCYPEGCSGPKVG [Av3bM165]
Degradation? ([1]; mutant strain fermentation at pH 6.5, 140 hours, rpHPLC): No
degradation product during fermentation (HPLC) ([1]; production strain fermentation at pH 6.5, rpHPLC): did not show any degradation product; also recorded: without apparent degradation products
degradation detected via HPLC and LC/MS [2]: degradation was not detected
knock-down effects compared to Av3b (Helicoverpa zea; CEW and FAW injection, KD50): comparable knock-down effects to Av3b
KD50 CEW (Helicoverpa zea; third instar larva, 2 μL injection, scored at 24-hours post-injection): 389 pmol/g
KD50 FAW (Spodoptera frugiperda): 578 pmol/g
CD Melting temperature [3]: 80 °C
peptide change on day 14 ([4]; pH 4.0, 54° C., HPLC peak area, + mass increase, − mass loss): +4.2%
thermo-stability at 54° C. ([4]; pH 4.0 solution, up to 14 days): thermo-stable
half conversion time to Av3b peptide [5]: 5.3 min

Source: patent publication US20250188136A1, “AV3 MUTANT POLYPEPTIDES FOR PEST CONTROL” (Vestaron Corporation, priority 2021, published 2025)
